Drawing on patent US20050214813A1, this text covers Fluorescence Intensity (thioflavin-T, Aβ1-28 aggregation after 24 hours, relative to the Aβ40-1 control taken as 100%) for four molecules.

The test has as its target Aβ1-28 consisting of 28 amino acid residues from the N-terminus of Aβ (UniProt P05067). Kind of test: cell-based or functional assay.

Sequence of Aβ1-28 consisting of 28 amino acid residues from the N-terminus of Aβ (P05067 672-699): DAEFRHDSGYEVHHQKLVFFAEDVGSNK

B1: PSEC0242 (supernatant containing the product expressed from the clone of SEQ ID NO. 7) (protein)
chain: MMGLGNGRRSMKSPPLVLAALVACIIVLGFNYWIASSRSVDLQTRIMELEGRVRRAAAERGAVELKKNEFQGELEKQREQLDKIQSSHNFQLESVNKLYQDEKAVLVNNITTGERLIRVLQDQLKTLQRNYGRLQQDVLQFQKNQTNLERKFSYDLSQCINQMKEVKEQCEERIEEVTKKGNEAVASRDLSENNDQRQQLQALSEPQPRLQAAGLPHTEVPQGKGNVLGNSKSQTPAPSSEVVLDSKRQVEKEETNEIQVVNEEPQRDRLPQEPGREQVVEDRPVGGRGFGGAGELGQTPQVQAALSVSQENPEMEGPERDQLVIPDGQEEEQEAAGEGRNQQKLRGEDDYNMDENEAESETDKQAALAGNDRNIDVFNVEDQKRDTINLLDQREKRNHTL
Regarding B1, the Fluorescence Intensity (thioflavin-T, Aβ1-28 aggregation after 24 hours, relative to the Aβ40-1 control taken as 100%) was 16%.

B2: PSEC0256 (supernatant containing the product expressed from the clone of SEQ ID NO. 9) (protein)
chain: MAGHSMVLVEILDVNDNVPEVMVTSLSLPVQEDAQVGTVIALISVSDRDSGANGQVICSLTPHVPFKLVSTYKNYYSLVLDSALDRESVSAYELVVTARDGGSPSLWATARVSVEVADVNDNAPAFAQPEYTVFVKENNPPGCHIFTVSAWDADAQKNALVSYSLVERRVGEHALSSYVSVHAESGKVYALQPLDHEELELLQFQVSARDAGVPPLGSNVTLQVFVLDENDNAPALLATPAGSAGGAVSELVPRSVGAGHVVAKVRAVDADSGYNAWLSYELQPAAVGAHIPFHVGLYTGEISTTRILDEADAPRHRLLVLVKDHGEPALTSTATVLVSLVENGQAPKTSSRASVGAVDPEAALVDINVYLIIAICAVSSLLVLTLLLYTALRCSAPPTVSRCAPGKPTLVCSSAVGSWSYSQQRRQRVCSAESPPKTDLMAFSPSLQLSREDCLNPPSEPRQPNPDWRYSASLRAGMHSSVHLEEAGILRAGPGGPDQQWPTVSSATPEPEAGEVSPPVGAGVNSNSWTFKYGPGNPKQSGPGELPDKFIIPGSPAIISIRQEPTNSQIDKSDFITFGKKEETKKKKKKKKGNKTQEKKEKGNSTTDNSDQ
B2 registered a Fluorescence Intensity (thioflavin-T, Aβ1-28 aggregation after 24 hours, relative to the Aβ40-1 control taken as 100%) of 460%.

B3: PSEC0220 (supernatant containing the product expressed from the clone of SEQ ID NO. 5) (protein)
chain: LWWAVGSPLVMDPTSICRKARRLAGRQAELCQAEPEVVAELARGARLGVRECQFQFRFRRWNCSSHSKAFGRILQQDIRETAFVFAITAAGASHAVTQACSMGELLQCGCQAPRWRAPPRPSGLPGTPGPPGPAGSPEGSAAWEWGGCGDDVDFGDEKSRLFMDARHKRGRGDIRALVQLHNNEAGRLAVRSHTRTECKCHGLSGSCALRTCWQKLPPFREVGARLLERFHGASRVMGTNDGKALLPAVRTLKPPGRADLLYAADSPDFCAPNRRTGSPGTRGRACNSSAPDLSGCDLLCCGRGHRQESVQLEENCLCRFHWCCVVQCHRCRVRKELSLCL
For B3, the Fluorescence Intensity (thioflavin-T, Aβ1-28 aggregation after 24 hours, relative to the Aβ40-1 control taken as 100%) was 250%.

B4: PSEC0129 (supernatant containing the product expressed from the clone of SEQ ID NO: 3) (protein)
chain: AFHASAVGLRSSDEQKQQPPNSFSQQHSETQGAEKPDPESSHSPPRYTDQGGEEEEDYESEEQLQHRILTAALEFVPAHGWTAEAIAEGAQVCIGEGGAT
For the molecule B4, the Fluorescence Intensity (thioflavin-T, Aβ1-28 aggregation after 24 hours, relative to the Aβ40-1 control taken as 100%) was found to be 24%.
